Test results from article PMC3561992.

T1: AtCyp59 full-length (Arabidopsis thaliana, UniProt Q6Q151 1-506)
T1 sequence: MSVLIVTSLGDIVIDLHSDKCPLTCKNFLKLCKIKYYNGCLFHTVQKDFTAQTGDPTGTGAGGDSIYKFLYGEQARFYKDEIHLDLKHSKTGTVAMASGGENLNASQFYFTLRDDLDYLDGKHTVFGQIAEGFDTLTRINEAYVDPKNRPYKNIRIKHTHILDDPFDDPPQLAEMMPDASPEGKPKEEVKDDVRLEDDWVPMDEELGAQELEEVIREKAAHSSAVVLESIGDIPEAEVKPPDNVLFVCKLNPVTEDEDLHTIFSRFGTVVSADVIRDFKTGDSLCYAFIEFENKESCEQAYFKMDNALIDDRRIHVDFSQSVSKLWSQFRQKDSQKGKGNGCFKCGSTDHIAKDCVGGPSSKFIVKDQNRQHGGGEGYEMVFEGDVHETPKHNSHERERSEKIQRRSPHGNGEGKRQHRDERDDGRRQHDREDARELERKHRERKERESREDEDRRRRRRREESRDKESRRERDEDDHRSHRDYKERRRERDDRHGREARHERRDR


These binders were tested against T1, AtCyp59 full-length (assay: EMSA).
In the case of GAUGCCG (ssRNA), the Kd is reported as 120 ± 25 nM. With GUAGCCG (ssRNA) the Kd was 120 ± 25 nM. For GUCGCCA (ssRNA), the Kd was 120 ± 25 nM. Work on GCUGCCG (ssRNA) yielded a Kd of 120 ± 25 nM. GCGGCCG (ssRNA) showed a Kd of 120 ± 25 nM. Binder GUAGCCA (ssRNA) has a Kd of 120 ± 25 nM. GGUGCCG (ssRNA) gave a Kd of 120 ± 25 nM. Work on GGAGCCA (ssRNA) yielded a Kd of 120 ± 25 nM. In the case of GUCGCCG (ssRNA), the Kd is reported as 120 ± 25 nM. GUUGCCG (ssRNA) showed a Kd of 120 ± 25 nM. In the case of GUGGCCG (ssRNA), the Kd is reported as 120 ± 25 nM. GACGCCA (ssRNA) showed a Kd of 120 ± 25 nM. GUGGCCA (ssRNA) showed a Kd of 120 ± 25 nM. Work on GCGGCCA (ssRNA) yielded a Kd of 120 ± 25 nM. Work on GCCGCCG (ssRNA) yielded a Kd of 120 ± 25 nM. With GCCGCCA (ssRNA) the Kd was 120 ± 25 nM. Work on GAUGCCA (ssRNA) yielded a Kd of 120 ± 25 nM.
